Test results reported in paper PMC4613530, “Structure-based design and functional studies of novel noroviral 3C protease chimaeras offer insights into substrate specificity” (Biochemical Journal, 2014).

B1: wild-type Southampton virus NS6 protease (enzyme)
chain: APPTLWSRVTKFGSGWGFWVSPTVFITTTHVIPTSAKEFFGEPLTSIAIHRAGEFTLFRFSKKIRPDLTGMILEEGCPEGTVCSVLIKRDSGELLPLAVRMGAIASMRIQGRLVHGQSGMLLTGANAKGMDLGTIPGDCGAPYVYKRANDWVVCGVHAAATKSGNTVVCAVQASEGETTLE
notes: NS6 protease (3C-like protease), cut product of the ORF1 polyprotein of Southampton virus (human norovirus); also called wtSV NS6; SV NS6
B2: wild-type murine norovirus NS6 protease (enzyme)
chain: APVSIWSRVVQFGTGWGFWVSGHVFITAKHVAPPKGTEIFGRKPGDFTVTSSGDFLKYYFTSAVRPDIPAMVLENGCQEGVVASVLVKRASGEMLALAVRMGSQAAIKIGSAVVHGQTGMLLTGSNAKAQDLGTIPGDCGCPYVYKKGNTWVVIGVHVAATRSGNTVIAATHGEPTLEALEFQ
notes: NS6 protease (3C-like protease), cut product of the ORF1 polyprotein of murine norovirus 1; expressed flanked by 41 residues of NS5 and 41 residues of NS7 and released by self-cleavage as the 19 kDa mature NS6; its strain may differ at a few residues from the UniProt entry; The tags sit upstream of the NS5 stretch and leave with it on self-excision; also called wtMNV NS6; MNV NS6; not shown: His …

Target: the molecule itself
Experiment: non-reducing PAGE; purified NS6 proteases analysed by non-reducing PAGE; major band at approximately 18 kDa, minor band at approximately 36 kDa taken as the dimer

Protein | binding result
B1 | binds
B2 | binds
